# T1: Ty3 RT (Ty3 retrotransposon, UniProt Q99315 536-1011)
# T1 sequence: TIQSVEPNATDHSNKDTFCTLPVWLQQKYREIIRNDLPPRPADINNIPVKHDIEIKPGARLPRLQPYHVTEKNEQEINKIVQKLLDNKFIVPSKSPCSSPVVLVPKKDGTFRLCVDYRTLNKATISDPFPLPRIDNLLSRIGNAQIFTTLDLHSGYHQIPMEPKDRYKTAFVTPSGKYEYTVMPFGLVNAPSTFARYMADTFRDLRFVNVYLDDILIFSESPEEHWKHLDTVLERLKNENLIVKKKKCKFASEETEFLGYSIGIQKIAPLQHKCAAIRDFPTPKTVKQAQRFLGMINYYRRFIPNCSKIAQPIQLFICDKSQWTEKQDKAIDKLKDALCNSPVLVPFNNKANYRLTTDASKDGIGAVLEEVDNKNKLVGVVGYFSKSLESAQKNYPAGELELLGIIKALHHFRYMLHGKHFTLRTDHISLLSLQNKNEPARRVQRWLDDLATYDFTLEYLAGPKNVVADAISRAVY
# T2: AMV RT (avian myeloblastosis virus, UniProt Q83133;Q83133 6-577;6-864)
# T2 sequence 1: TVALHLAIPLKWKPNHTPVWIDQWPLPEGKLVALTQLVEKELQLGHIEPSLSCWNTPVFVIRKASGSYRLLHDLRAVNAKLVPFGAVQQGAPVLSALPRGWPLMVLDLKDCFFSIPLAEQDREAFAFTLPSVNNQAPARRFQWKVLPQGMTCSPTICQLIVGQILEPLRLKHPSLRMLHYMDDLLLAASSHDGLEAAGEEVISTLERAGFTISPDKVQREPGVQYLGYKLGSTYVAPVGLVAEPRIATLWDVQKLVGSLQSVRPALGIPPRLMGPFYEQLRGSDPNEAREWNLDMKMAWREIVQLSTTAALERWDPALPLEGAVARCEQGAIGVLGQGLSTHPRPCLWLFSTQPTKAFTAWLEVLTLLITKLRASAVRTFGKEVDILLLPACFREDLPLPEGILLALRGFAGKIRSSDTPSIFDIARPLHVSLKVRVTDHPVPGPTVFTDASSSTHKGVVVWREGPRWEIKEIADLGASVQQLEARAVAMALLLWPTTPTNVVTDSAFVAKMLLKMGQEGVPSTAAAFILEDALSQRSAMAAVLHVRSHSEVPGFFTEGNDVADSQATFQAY
# T2 sequence 2: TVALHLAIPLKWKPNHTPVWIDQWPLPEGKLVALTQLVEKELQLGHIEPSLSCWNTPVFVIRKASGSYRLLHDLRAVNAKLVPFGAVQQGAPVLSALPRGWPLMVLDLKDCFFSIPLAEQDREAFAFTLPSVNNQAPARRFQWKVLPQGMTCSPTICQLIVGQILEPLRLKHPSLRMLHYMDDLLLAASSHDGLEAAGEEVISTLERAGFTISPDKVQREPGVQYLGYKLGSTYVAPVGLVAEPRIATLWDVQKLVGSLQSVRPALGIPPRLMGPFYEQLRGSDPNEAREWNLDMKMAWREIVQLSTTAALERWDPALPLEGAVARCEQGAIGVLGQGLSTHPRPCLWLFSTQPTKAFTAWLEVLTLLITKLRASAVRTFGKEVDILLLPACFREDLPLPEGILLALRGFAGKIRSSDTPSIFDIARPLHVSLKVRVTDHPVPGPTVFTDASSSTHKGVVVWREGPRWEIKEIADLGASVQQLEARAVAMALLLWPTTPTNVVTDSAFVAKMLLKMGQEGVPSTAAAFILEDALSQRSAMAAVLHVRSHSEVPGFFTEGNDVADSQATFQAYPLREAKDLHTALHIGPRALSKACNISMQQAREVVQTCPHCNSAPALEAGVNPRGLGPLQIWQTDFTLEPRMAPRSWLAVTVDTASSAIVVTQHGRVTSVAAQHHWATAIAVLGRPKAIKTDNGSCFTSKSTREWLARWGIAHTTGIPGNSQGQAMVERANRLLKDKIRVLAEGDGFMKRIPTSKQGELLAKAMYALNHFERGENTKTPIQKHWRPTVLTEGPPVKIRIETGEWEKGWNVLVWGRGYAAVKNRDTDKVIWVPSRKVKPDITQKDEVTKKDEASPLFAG
# B1: MuLV R14-3 (dsDNA)
# DNA 1: GCCTGCAGGTCGACTCTAGAGAGATGTAGCGCATGAAGGTA
# DNA 2: CTTCTACCTTCATGCGCTACATCTCTCTAGAGTCGACCTGCAGGC
# B2: Ty3+3 RNA PPT (DNA:RNA)
# RNA: CCUGAGCGCGCGGCC
# DNA: CAGCGGCCGCGCGCTCAGG
# modifications: strand 1 RNA, strand 2 DNA
# B3: MuLV R14-2 (dsDNA)
# DNA 1: GCCTGCAGGTCGACTCTAGACACCAGGACATGATGGCAGGA
# DNA 2: ATCTTCCTGCCATCATGTCCTGGTGTCTAGAGTCGACCTGCAGGC
# B4: MuLV DNA PPT (dsDNA)
# DNA 1: GCCTGCAGGTCGACTCTAGATAGTCTCCAGAAAAAGGGGGG
# DNA 2: CATTCCCCCCTTTTTCTGGAGACTATCTAGAGTCGACCTGCAGGC
# B5: AMV R12-2 (dsDNA)
# DNA 1: GCCTGCAGGTCGACTCTAGATCACAAAGACCGGCGGGGTAA
# DNA 2: ATCTTTACCCCGCCGGTCTTTGTGATCTAGAGTCGACCTGCAGGC
# B6: Ty3 RNA PPT (DNA:RNA)
# ?: GAGCGCGCGGCC
# DNA: CAGCGGCCGCGCGCTCAGG
# modifications: strand 1 RNA, strand 2 DNA
# B7: HIV DNA PPT (41/45) (dsDNA)
# DNA 1: GCCTGCAGGTCGACTCTAGACTTTTTAAAAGAAAAGGGGGG
# DNA 2: CAGTCCCCCCTTTTCTTTTAAAAAGTCTAGAGTCGACCTGCAGGC
# B8: TY3 DNA PPT (dsDNA)
# DNA 1: GCCTGCAGGTCGACTCTAGAGACAACCCTGAGAGAGAGGAA
# DNA 2: CATCTTCCTCTCTCTCAGGGTTGTCTCTAGAGTCGACCTGCAGGC
# B9: AMV R12-3 (dsDNA)
# DNA 1: GCCTGCAGGTCGACTCTAGACGGGCAGTGTAATGAAGGCCA
# DNA 2: CTTCTGGCCTTCATTACACTGCCCGTCTAGAGTCGACCTGCAGGC
# B10: AMV DNA PPT (dsDNA)
# DNA 1: GCCTGCAGGTCGACTCTAGAGCTTTTGCATAGGGAGGGGGA
# DNA 2: CATTTCCCCCTCCCTATGCAAAAGCTCTAGAGTCGACCTGCAGGC
# B11: Control-1 (DNA:RNA)
# ?: AAAAGAAAAGCGCGC
# DNA: CAGTGCGCGCTTTTCTTTT
# modifications: strand 1 RNA, strand 2 DNA
# B12: MuLV R14-1 (dsDNA)
# DNA 1: GCCTGCAGGTCGACTCTAGAATAAGGAAGATCTGCGGGGGG
# DNA 2: CTTTCCCCCCGCAGATCTTCCTTATTCTAGAGTCGACCTGCAGGC
# B13: Control-2 (DNA:RNA)
# RNA: AAUUCGAGCUCGGUA
# DNA: CAGTTACCGAGCTCGAATT
# modifications: strand 1 RNA, strand 2 DNA
# Assays:
# MuLV RT = MuLV RT (Moloney murine leukemia virus, UniProt P03355 660-1330); experiment: primer extension with trap; 6 mM Mg2+; Primer extension: 50 mM Tris-HCl pH 8.0, 80 mM KCl, 6 mM MgCl2, 1 mM DTT, 0.1 mg/ml BSA, room temperature, 1 nM duplex; filter binding: Tris-HCl pH 8.0, 80 mM K
# HIV RT [1] = target: T3, HIV RT (HIV, UniProt P04585;P04585 588-1147;588-1027); experiment: filter binding; no Mg2+; Primer extension: 50 mM Tris-HCl pH 8.0, 80 mM KCl, 6 mM MgCl2, 1 mM DTT, 0.1 mg/ml BSA, room temperature, 1 nM duplex; filter binding: Tris-HCl pH 8.0, 80 mM KCl, 1 mM DTT, without Mg2+ (wt) or 6 mM Mg2+ (E478Q), room temperature, 5 nM hybrid (Table 1 units nM inferred); details: protein: commercial, copies: 1;1, label: 5'-32P primer
# Ty3 RT = target: T1, Ty3 RT; experiment: primer extension with trap; 6 mM Mg2+; Primer extension: 50 mM Tris-HCl pH 8.0, 80 mM KCl, 6 mM MgCl2, 1 mM DTT, 0.1 mg/ml BSA, room temperature, 1 nM duplex; filter binding: Tris-HCl pH 8.0, 80 mM KCl, 1 mM DTT, without Mg2+ (wt) or 6 mM Mg2+ (E478Q), room temperature, 5 nM hybrid (Table 1 units nM inferred); details: protein: recombinant; label: 5'-32P primer; 41 nt primer on 45 nt template, 5' overhang 4 nt (template)
# HIV RT [2] = target: T3, HIV RT; experiment: as above; details: protein: commercial; copies: 1;1; label: 5'-32P primer; 41 nt primer on 45 nt template, 5' overhang 4 nt (template)
# AMV RT = target: T2, AMV RT; experiment: as above; details: protein: commercial; copies: 1;1; label: 5'-32P primer; 41 nt primer on 45 nt template, 5' overhang 4 nt (template)
Binder,Kd (MuLV RT),Kd (Ty3 RT),Kd (HIV RT [2]),Kd (AMV RT),also measured
B1,53 nM,,,,
B2,,,,,"Kd (HIV RT [1]; 5' overhang 4 nt (template), printed U opposite A): 900 ± 205 nM"
B3,77 nM,,,,
B4,12 nM,45 ± 4 nM,3.5 ± 0.5 nM,2.6 ± 0.2 nM,
B5,,,,3.5 ± 0.1 nM,
B6,,,,,"Kd (HIV RT [1]; template 5' overhang 4 nt, 3' overhang 3 nt): 2380 ± 840 nM"
B7,7.5 nM,53 ± 12 nM,3.2 ± 0.2 nM,2.1 ± 0.4 nM,
B8,46 nM,84 ± 26 nM,57 ± 10 nM,12 ± 2 nM,
B9,,,,6.8 ± 0.1 nM,
B10,17 nM,58 ± 4 nM,8.2 ± 2 nM,1 ± 0.1 nM,
B11,,,,,Kd (HIV RT [1]; 5' overhang 4 nt (template)): 1760 ± 290 nM
B12,8.1 nM,,,,
B13,,,,,Kd (HIV RT [1]; 5' overhang 4 nt (template)): 2610 ± 710 nM
